Source: the supplement of paper PMC12764529
± gives the half width of the 95% confidence interval.

Columns and labels:
[1] = folding stability dG unfold (combined trypsin and chymotrypsin); higher = more stable
Summary of the method: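 Digests were run with trypsin and chymotrypsin at 11 concentrations in threefold dilutions, plus a no-protease condition, on designed mini-proteins in a PA-tagged cDNA display construct. The mini-proteins were under 80 residues, had no cysteine, and were kept only when AlphaFold2 dimer inter-PAE was above 15. After sequencing, Bayesian fitting of the counts gave K50, from which unfolding free energy was derived against a sequence-predicted unfolded-state K50 and a shared folded-state K50, per protease or combined.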

[2] = folding stability dG unfold from trypsin proteolysis; higher = more stable
Procedure: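 Folding stability of de novo designed mini-proteins (<80 aa, no Cys; designed by TrROS, TrMRF, ProteinMPNN and the joint model) was measured by cDNA display proteolysis with trypsin and chymotrypsin. Each protease was used at 11 concentrations in a threefold dilution series plus a no-protease condition. K50 was inferred by Bayesian fitting of sequencing counts, and dG unfold was derived against a sequence-predicted unfolded-state K50 (Tsuboyama et al. method). Sequences shown include variable-length N-terminal GS-type padding (SAGGSAGG...) inside a display construct carrying a PA tag. Rows were kept only if the AF2 dimer inter-PAE was >15, to exclude likely homo-oligomers.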

Sequence | folding stability dG unfold [1] | folding stability dG unfold [2]
SAGGSAGGSAGGSMVLYERVPASELPPGKGETLLIREVTVEKLPGNRIILNEGVKVIPPSAGGSAGGSAGGS [r4_444_JUSTAS] | -0.831 ± 0.24 kcal/mol | -0.186 ± 0.15 kcal/mol
SAGGGVSTSTDPNSDTTTTTVPLPNSDSTATSTHNPSTGTSTTTVPTNNTTTTYSPGGTTTATTTLPTSAGG [r13_101_JUSTAS] | -0.425 ± 0.18 kcal/mol | 0.465 ± 0.034 kcal/mol
SAGGSAVPKSDPVIRIKVKYPSNPQVITVPRSEIVEMEVGPPENIMTIKNPKTGKEYPATLLEILASAGGSA [r15_495_JUSTAS] | < -1 kcal/mol | -0.531 ± 0.23 kcal/mol
SAGGSAGGSIAPDEPLVLEVEVEEVVPGVGEVLLPEWIAEEFPDAVIEVETDGTPVKVTIYRPSAGGSAGGS [r12_900_TrMRF] | 0.0203 ± 0.076 kcal/mol | 0.743 ± 0.045 kcal/mol
SMPISAEELAELFPGVVEIKPEPDSTVITAKDPNGTNPVFTLSPAGTVTVTTYTPGSGTTTTTTIPTALLSA [r9_427_JUSTAS] | 0.159 ± 0.071 kcal/mol | 0.681 ± 0.025 kcal/mol
SAGGSAGGSAGGLKIQRFPDGNWYRIYLPNGNEHHIPMDEPIKVPNAKEPVKIEPVPPDDSAGGSAGGSAGG [r7_968_TrROS] | -0.961 ± 0.41 kcal/mol | -0.936 ± 0.28 kcal/mol
SAGGSAGGSSMPLLTKETSESYDPVNNTKTTTERIEEPGSGKFVFTKTTTTYPDGTVTTTLVESAGGSAGGS [r12_115_JUSTAS] | -0.652 ± 0.35 kcal/mol | -0.336 ± 0.42 kcal/mol
SAGGSAGGSAGTITTTTDPATGEYTVTIPIASGDGTPVGTIPVTVPKSDPSAAAAFIAATSAGGSAGGSAGG [r11_77_JUSTAS] | -0.438 ± 0.29 kcal/mol | 0.106 ± 0.11 kcal/mol
SAGGSAGGSAGATVLQQGTATPPDGTTVTFNYNITLPSDVLISVDKNPPNPDLVTKIEAGSAGGSAGGSAGG [r11_781_JUSTAS] | -0.197 ± 0.4 kcal/mol | 0.154 ± 0.029 kcal/mol
SAGGSAGGSTIREILDALPPGREIDVERHPNNGHYEISIQNPNGPNPTFQIDDPVTKEIAEWISAGGSAGGS [r12_174_TrROS] | -0.0634 ± 0.11 kcal/mol | 0.65 ± 0.031 kcal/mol
SAGGSAGGSAGGMTEYVPGEGKVLVTYPDGTTKVVPVDPATPEEFRAELEAAGVPEIKPLSAGGSAGGSAGG [r7_139_JUSTAS] | 0.198 ± 0.085 kcal/mol | 0.762 ± 0.027 kcal/mol
SAGGSAGGSAGGPSDVTLLEEEVEELPNGTIKTRYTFKLPNGELAEAESTTPLEGPFHHSAGGSAGGSAGGS [r10_532_JUSTAS] | -0.463 ± 0.26 kcal/mol | -0.0802 ± 0.2 kcal/mol
SAGGSAGGSAGGSMPLRKVTVSRPDSTLEFEFPESVPEEEVKEKLKKEYPNAEVKVEPESAGGSAGGSAGGS [r4_155_JUSTAS] | < -1 kcal/mol | -0.633 ± 0.25 kcal/mol
SAGGSAGGSAVEEEVERIEKAVGVPIDPGSSVTKVKEGVEPVLPYRMDIKPGVESPELLLLSAGGSAGGSAG [r3_427_JUSTAS] | < -1 kcal/mol | -0.908 ± 0.53 kcal/mol
SAGGSAGGSTTSTIKVTLENPSGSPLKLETATITTDPVAGTSTLTVTVPGTGETKFVGTNPNLSSAGGSAGG [r6_330_JUSTAS] | 0.107 ± 0.061 kcal/mol | 0.713 ± 0.052 kcal/mol
SAGGMRIWRVPETGVRAEVGTGGPWLVTITSSTTPVPEVRPVPPEEVEAFLRARFPGPVEEVERRPVPESAG [r5_519_JUSTAS] | -0.783 ± 0.19 kcal/mol | -0.647 ± 0.34 kcal/mol
SAGGSAGGSAGGPKIDHVMLHRNPGNGRYNVTIKLRDPNGKPKDTIMVPMNDPEKILDALSAGGSAGGSAGG [r7_484_TrROS] | -0.652 ± 0.22 kcal/mol | -0.0862 ± 0.06 kcal/mol
SAGGSAGGSAGGVPEEEIRERVEAAGLTAPDAEVVYETPENITVRVTVPPTGLVFERLESAGGSAGGSAGGS [r10_604_JUSTAS] | -0.367 ± 0.1 kcal/mol | 0.0893 ± 0.048 kcal/mol
SAGGSAGGSAGGLADLLKGKTFTVTFPEGDKPYPATFEPTADDTVRVGFPDGDSYPVPAAYQSAGGSAGGSA [r18_169_TrMRF] | < -1 kcal/mol | -0.466 ± 0.2 kcal/mol
SAGGSAGGSAGKVKVKVESNPDGTLIIAEEFEDFVVIVELKVDDDGIHFHPHPVVLSKELSAGGSAGGSAGG [r17_72_TrMRF] | -0.695 ± 0.38 kcal/mol | 0.0484 ± 0.1 kcal/mol
SAGGFRINIPPNMPKEKLEEIQDEAEEESGMPVTINTNPDDGSLHIEFPGGPEWKQRRIQDEIRELLSAGGS [r16_227_TrROS] | < -1 kcal/mol | -0.507 ± 0.44 kcal/mol
SAGGPVVLKIEIEQKTDGKPQERELVIPVKWDPNGQVDADEIKDWVEEALPPGYKIEDIDVVPPGQPFSAGG [r13_504_TrROS] | < -1 kcal/mol | -0.594 ± 0.22 kcal/mol
SAGGSAGGSAGGGSMTLSLDTRPEDGTLVLVSTFVDPASGLVSVTTTYPDSTVTTTLPVGSAGGSAGGSAGG [r7_402_JUSTAS] | 0.528 ± 0.087 kcal/mol | 0.998 ± 0.049 kcal/mol
SAGGNPDWIPIQVPFEDPGDQDAMKKLVEELADIFLDEGIKPIEVEHTNPGHYSVWIPFDGKSIRIHSAGGS [r16_703_TrROS] | -0.888 ± 0.38 kcal/mol | -0.37 ± 0.13 kcal/mol

Sequence | folding stability dG unfold [1] | folding stability dG unfold [2]
SAGGSAGGEYKVYPVKGDLKEFFDEAYKENPGGVRIIDPDTDEVLDFPPDLSLDEFPGTFVVLGSAGGSAGG [r6_857_TrMRF] | < -1 kcal/mol | -0.238 ± 0.13 kcal/mol
SAGGSAGGTIIDRIKELFGPGMKINIQEHPSEPYYRIRIKNPGFGQKREIHVPPDSIEDILDQISAGGSAGG [r6_612_TrROS] | 0.202 ± 0.36 kcal/mol | 0.538 ± 0.33 kcal/mol
SAGGSAGGSDPVVIPVPMDDFSKETIKNFIDEAPDDNRPIQMNFPNGKPIYIQVEPDGDIKPVSAGGSAGGS [r12_1054_TrROS] | < -1 kcal/mol | 0.557 ± 0.041 kcal/mol
SMTITHKIPPDDPEKAEEEIKEKIEKETGLKVEKVEVPEGDGATLVVTIDKEKPVVTAEVVPLLPDGTPVSA [r9_173_JUSTAS] | 0.191 ± 0.35 kcal/mol | 0.85 ± 0.17 kcal/mol
SAGGMTPEELKKVTIEKTVKDPSGNEYLEKSEVKEVEKKDEKYILKIPYTIKDKNGNTISNGTKTIPLSAGG [r13_172_JUSTAS] | < -1 kcal/mol | -0.446 ± 0.5 kcal/mol
SAGGSAGGSGKWMTAKELLKEFKPGKTIMIRMPPGTEIPPNIKPKGTFPGNGWMMIKIPPNDISAGGSAGGS [r12_356_TrROS] | -0.274 ± 0.42 kcal/mol | -0.2 ± 0.45 kcal/mol
SAGMKVEVVERKGPDGRLVRVVKETTITPVPGPAVAEANGAPLTPEDEKVVTVTTTVLDPEGKVLETVDSAG [r5_128_JUSTAS] | < -1 kcal/mol | -0.903 ± 0.43 kcal/mol
SAGGSSLDEKIKQAVEEGKVPTEIEFTDPSNDLKTRYLVTVKSVLPGSYEVEVEEEIFDPDNPVLVSAGGSA [r2_420_JUSTAS] | < -1 kcal/mol | -1.07 ± 0.27 kcal/mol
SVPPFLNLPEAAKALAKAKPGPPVPRLTFPVTTDDPEEALEEILKQYPHLHPDKIKRVEVGDGYLTVEFGSA [r9_723_TrMRF] | < -1 kcal/mol | -0.936 ± 0.34 kcal/mol
SAGGSAGGSAGTIVTPTATYRIEKLPDKRVRIVVGDKEYEVRVGEPFYLPGGVPFEVLDESAGGSAGGSAGG [r11_147_TrMRF] | -0.299 ± 0.19 kcal/mol | 0.35 ± 0.13 kcal/mol
GMVLVRVELYRPDEEELVAEVEIPFPVPESLLENLSEEEREKLREEAEKAAEKLAEELGDVEVKPEIYTDLS [r1_115_TrMRF] | -0.317 ± 0.42 kcal/mol | 0.147 ± 0.095 kcal/mol
SAGGSAGGSAGGAMREVPIVLPFSPEMSEEEARALIEEELKRKGDPIAKLVIDKKSPALLSAGGSAGGSAGG [r7_703_JUSTAS] | < -1 kcal/mol | -0.687 ± 0.45 kcal/mol
SAGGMTEIEPDSEEKAEAEIEKVVEEEAEKALKSEKKNVTIKVDVKVVDPVTGKSKTYPVEKLVKLPSAGGS [r8_163_JUSTAS] | < -1 kcal/mol | -1.4 ± 0.83 kcal/mol
SAGGSAGGSAGGSERHTAVLVDTGFRISPAPEEGGLRLEAGASLTIREVPEDALKEVLGSAGGSAGGSAGGS [r4_274_TrMRF] | < -1 kcal/mol | -0.398 ± 0.26 kcal/mol
SAGGSAMDAEQIEEKIKEAMQDHGHEVEVEVQRDPNNTVVIQVESGPGMDKDRIQEALQEKFGVKISAGGSA [r15_807_TrROS] | < -1 kcal/mol | -0.793 ± 0.1 kcal/mol
SAGGSAGGGLSASDTVTFPDGTVVTVAPDATVTITVPAPPDAAGNLTSTVTRTVTVAPGTRVLLSAGGSAGG [r6_90_JUSTAS] | < -1 kcal/mol | -0.907 ± 0.41 kcal/mol
SAGMSTSGPIFVPEGPPAIYISYPKPNVKFVVPVSEGIEAVKKRAEEPGLNPVIIKVVETPPGVPVTLSAGG [r19_386_JUSTAS] | < -1 kcal/mol | -0.988 ± 0.34 kcal/mol
SAGGGSSMVTTVIPVLRTETLFDENGNVIGPRTTVETIELEAEVPLPPRPPLVFSFVPPELRDPAVLLSAGG [r13_508_JUSTAS] | < -1 kcal/mol | -0.299 ± 0.24 kcal/mol
SAGGSAGGSAGGSKKTAVLKVGDKWIPLEIDEDKVTLIYPDGKKEEISLEDIPENTISDASAGGSAGGSAGG [r7_748_TrMRF] | -0.212 ± 0.11 kcal/mol | 0.0901 ± 0.064 kcal/mol
SAGGSPYRIKFEFPNGPKFEFPVKITEIQPPNGNLYANITAQDDGKPHELMFPAPNIRPVEIEPPPSAGGSA [r2_319_TrROS] | -0.414 ± 0.66 kcal/mol | -0.796 ± 0.69 kcal/mol
SAMLTTLETTTTTSDSLTVTTSLSLLPDGSLVTTTTVIDTSGNVLSSTTTVEPGPPPVTPENIALMVRLSAG [r14_171_JUSTAS] | 0.125 ± 0.29 kcal/mol | 0.298 ± 0.12 kcal/mol
SAGGSAGGSAGGKLVKVTFRTPGGGTLTVEVPPTESLTLPYGDKPILVDVKEDEVVFRDESAGGSAGGSAGG [r7_510_TrMRF] | -0.891 ± 0.44 kcal/mol | -0.572 ± 0.18 kcal/mol
SAIRGLPPEEIEKAVKKLAKEGNVEIEIKPFTMRVYPPDGGQQPYQYYQIEIYNPDNGKPIEDKIKKLFSAG [r14_628_TrROS] | < -1 kcal/mol | 0.167 ± 0.25 kcal/mol
